Test results from PMC10786891, “Massively parallel profiling of RNA-targeting CRISPR-Cas13d”.
Changes are numbered by the printed parent chain. Names may count otherwise.

T1: EsCas13d, nuclease-dead (Eubacterium siraeum, UniProt B0MS50, R295A;H300A;R849A;H854A)
T1 sequence: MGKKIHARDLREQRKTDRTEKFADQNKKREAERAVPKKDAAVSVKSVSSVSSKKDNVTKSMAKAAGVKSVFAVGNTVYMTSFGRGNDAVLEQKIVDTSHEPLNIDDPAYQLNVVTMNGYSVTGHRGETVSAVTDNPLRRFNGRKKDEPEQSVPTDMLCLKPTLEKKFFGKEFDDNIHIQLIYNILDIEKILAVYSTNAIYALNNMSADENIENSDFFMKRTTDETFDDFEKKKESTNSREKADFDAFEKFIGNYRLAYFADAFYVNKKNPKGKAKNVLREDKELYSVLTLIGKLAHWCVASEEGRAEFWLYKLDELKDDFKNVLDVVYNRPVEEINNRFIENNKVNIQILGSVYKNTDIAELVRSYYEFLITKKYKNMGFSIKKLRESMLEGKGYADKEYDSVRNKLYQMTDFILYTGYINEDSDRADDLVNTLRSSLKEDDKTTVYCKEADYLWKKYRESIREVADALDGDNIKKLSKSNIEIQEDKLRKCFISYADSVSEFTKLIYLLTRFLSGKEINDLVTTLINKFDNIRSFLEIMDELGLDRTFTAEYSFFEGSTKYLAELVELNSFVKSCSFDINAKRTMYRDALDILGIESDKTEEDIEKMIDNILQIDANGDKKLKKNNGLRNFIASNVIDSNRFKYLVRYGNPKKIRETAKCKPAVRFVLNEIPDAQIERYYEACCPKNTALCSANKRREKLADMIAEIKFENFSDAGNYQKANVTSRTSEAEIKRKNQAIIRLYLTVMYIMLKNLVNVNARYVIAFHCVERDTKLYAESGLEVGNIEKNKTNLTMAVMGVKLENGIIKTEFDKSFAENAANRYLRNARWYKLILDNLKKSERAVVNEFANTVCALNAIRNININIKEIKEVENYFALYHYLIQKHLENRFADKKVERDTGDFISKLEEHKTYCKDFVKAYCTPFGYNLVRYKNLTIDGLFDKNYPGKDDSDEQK

B1: target 1 U8A,G15A (mixed)
RNA 1: CACCCGUGCAAAAAUGCAGGGGUCUAAAACUGAGCGGAUAACCUCUCUAUGG
RNA 2: GGGAAUGGAUCCACAUCUACGAAUUCGUACCAUAGAAAGGUUAACCGCUCACCGAGAUCGGAAGAGCACACGU
B2: target 1 C7A,G13U (mixed)
RNA 1: B1 RNA 1
RNA 2: B1 RNA 2 with A37G, G39U, A44U, C45A
B3: target 1 del2,del8 (mixed)
RNA 1: B1 RNA 1
RNA 2: GGGAAUGGAUCCACAUCUACGAAUUCGUACCAUAGAGAGGUUACCGCUACCGAGAUCGGAAGAGCACACGU
B4: target 1 C7U,C22U (mixed)
RNA 1: B1 RNA 1
RNA 2: B1 RNA 2 with C30U, A37G, A44U, C45U
B5: target 1 insG 3' of 21,insA 3' of 10 (mixed)
RNA 1: B1 RNA 1
RNA 2: GGGAAUGGAUCCACAUCUACGAAUUCGUACCGAUAGAGAGGUUAAUCCGCUCACCGAGAUCGGAAGAGCACACGU
B6: target 1 C4A,G12U (mixed)
RNA 1: B1 RNA 1
RNA 2: B1 RNA 2 with A37G, G40U, A44U, C48A
B7: target 1 insC 3' of 18,insA 3' of 2 (mixed)
RNA 1: B1 RNA 1
RNA 2: GGGAAUGGAUCCACAUCUACGAAUUCGUACCAUACGAGAGGUUAUCCGCUCAACCGAGAUCGGAAGAGCACACGU
B8: target 1 C7U (mixed)
RNA 1: B1 RNA 1
RNA 2: B1 RNA 2 with A37G, A44U, C45U
B9: target 1 insG 3' of 8,insA 3' of 6 (mixed)
RNA 1: B1 RNA 1
RNA 2: GGGAAUGGAUCCACAUCUACGAAUUCGUACCAUAGAGAGGUUAUGCCAGCUCACCGAGAUCGGAAGAGCACACGU
B10: target 1 insU 3' of 17,insG 3' of 4 (mixed)
RNA 1: B1 RNA 1
RNA 2: B7 RNA 2 with C35G, G36U, U50G, C51U, A52C
B11: target 1 insA 3' of 22,insC 3' of 18 (mixed)
RNA 1: B1 RNA 1
RNA 2: B5 RNA 2 with C31A, G32C, G36C, A37G, G38A, A39G, G40A, U42G, A44U
B12: target 1 del1,del8 (mixed)
RNA 1: B1 RNA 1
RNA 2: B3 RNA 2 with A49C
B13: target 1 G15C,G17A (mixed)
RNA 1: B1 RNA 1
RNA 2: B1 RNA 2 with G35A, A37C, A44U
B14: target 1 G13A,C21U (mixed)
RNA 1: B1 RNA 1
RNA 2: B1 RNA 2 with C31U, A37G, G39A, A44U
B15: target 1 C2U,G17U (mixed)
RNA 1: B1 RNA 1
RNA 2: B1 RNA 2 with G35U, A37G, A44U, C50U
B16: target 1 C2U,C6A (mixed)
RNA 1: B1 RNA 1
RNA 2: B1 RNA 2 with A37G, A44U, C46A, C50U

Target: T1, EsCas13d, nuclease-dead
Test: crRNA (strand 1, pre-loaded); Mg2+; 40 mM Tris-HCl pH 7.5, 150 mM NaCl, 6 mM MgCl2, 1 mM DTT, 0.1% Tween-20, 0.2 mg/ml BSA; 25 C; 10 min per concentration, then washed
Details: tags: His6-TwinStrep-SUMO cleaved; N-terminal SNAP kept (SNAP-Surface 488); label: 3' end held by stalled T7 RNA polymerase

B1 and B2 are within error of each other in Kd: 87 ± 23 nM for the first, 59 ± 21 nM for the second.

B3 and B4 are within 1.5-fold of each other in Kd: 10 ± 0.5 nM for the first, 14.2 ± 1.3 nM for the second.

Going from B5 to B6, the Kd falls from 84 ± 24 nM to 8.5 ± 1.3 nM (9.9-fold). The second binds more tightly here.

Going from B7 to B8, the Kd falls from 28.1 ± 2.6 nM to 7.5 ± 0.4 nM (3.7-fold). The second binds more tightly here.

B9 and B10 are within error of each other in Kd: 13.1 ± 0.8 nM for the first, 14.5 ± 1.3 nM for the second.

Going from B11 to B12, the Kd falls from 47 ± 8 nM to 17.3 ± 1.7 nM (2.7-fold).

Going from B13 to B14, the Kd falls from 90 ± 40 nM to 7.8 ± 0.7 nM (12-fold).

Going from B15 to B16, the Kd falls from 20.5 ± 2.4 nM to 6 ± 0.4 nM (3.4-fold).
